Data from US20250262297A1, “ALLERGY ANTIGEN AND EPITOPE THEREOF” (HOYU CO., LTD., priority 2017, published 2025).

B1: alpha-1,4 glucan phosphorylase L isozyme, chloroplastic/amyloplastic (protein)
chain: MASSSTTMRFSAASTGAAAALPRRSSVAGFIGVAARSSAKSRLRFIGRNANLSLRMRRMSSFSVVKCVSGSEAKVQDTVAKQQEATTSLSSFTPDASSIASSIKYHAEFTPLFSPENFDLPQAFLATAQSVRDSLIINWNATYDYYEKLNVKQAYYLSMEFLQGRALLNAIGNLELTGPYAEALSKLGHKLENVAYQEPDAALGNGGLGRLASCFLDSLATLNYPAWGYGLRYKYGLFKQRITKDGQEEVAEDWLEMGNPWEIIRNDVSYPVKFYGKVVSGSDGKKHWIGGEDIKAVAHDVPIPGYKTKTTINLRLWSTKAASEEFDLSAFNAGRHTEASEALANAEKICYILYPGDEPIEGKILRLKQQYTLCSASLQDIIARFERRSGANVNWEEFPEKVAVQMNDTHPTLCIPELMRILIDVKGLNWKDAWNITQRTVAYTNHTVLPEALEKWSLDLMQKLLPRHIEIIEMIDEELVRTIIAEYGTENSDLLEKKLKEMRILENVELTAEFADILVKSKEAIDIPSEELQSSEQAEAEDEKDDDEVEAVAKKNGTDESSIEDEKEELPEPVPEPPKLVRMANLCVVGGHAVNGVAEIHSEIVKDDVFNAFYKLWPEKFQNKTNGVTPRRWIRFCNPDLSKIITEWIGTEDWVLNTGKLAELRKFVDNEDLQVQWREAKRSNKVKVAAFIREKTGYSVSPDAMFDIQVKRIHEYKRQLMNIFGIVYRYKKMKEMSAAEREANFVPRVCIFGGKAFATYVQAKRIVKFITDVGATVNHDPEIGDLLKVVFVPDYNVSVAEMLIPASELSQHISTAGMEASGTSNMKFAMNGCILIGTLDGANVEIREEVGADNFFLFGAKAHEIAGLRKERAEGKFVPDPRFEEVKEFVRSGIFGSYNYDELMGSLEGNEGFGRADYFLVGKDFPSYIECQEKVDEAYRDQTKWTRMSILNTAGSYKFSSDRTIHEYAREIWNIEPVQLP
B2: triosephosphate isomerase isoform X1 (protein)
chain: MGRKFFVGGNWKCNGTTEEVKKIVTTLNEAKVPGEDVVEVVVSPPFVFLPFVKSLLRPDFHVSAQNCWVRKGGAYTGEVSAEMLVNLGIPWVIIGHSERRQLLNESNEFVGDKVAYALQQGLKVIACIGETLEQREAGTTTAVVAEQTKAIAAKISNWDNVVLAYEPVWAIGTGKVATPAQAQEVHADLRKWVHDNVSAEVAASVRIIYGGSVNGGNCKELAAQPDVDGFLVGGASLKAEFVDIINAATVKKN
modifications: Glycine max
notes: spot also identified as triosephosphate isomerase, cytosolic
B3: 51 kDa seed maturation protein precursor (protein)
chain: MASKVVSVLVIAMMLFAMNCNCTSVGHMPSTKEEGHDFQESKAKTTQTANKAMETGKEGQEAAESWTEWAKEKLSEGLGFKHDQESKESTTNKVSDYATDTAQKSKDYATDTAQKSKDYAGDAAQKSKDYAGDAAQKTKDYASDTAQTSKDYAGDAAQKSKGYVGDAAQKTKEYVGDAAQKTKDYATDAAQKTKDYATQKTKDYASDATDAAKKTKDYAAQKTKDYASEASDVAQNTKDYAAQKTKDYASGGAQKTKDYASGGAQKTKDYASDAAQKTKDYASDGAQKSKEYAGDVALNAKDYAQKSKDYAGDAAQNVKDYASDAVQKRKEYSGDASHKSKEASDYASETAKKTKDYVGDAAQRSKGAAEYASDAAQRTKEYAGDATKRSKEASNDHANDMAQKTKDYASDTAQRTKEKLQDIASEAGQYSAEKAREMKDAAAEKASDIAKAAKQKSQEVKEKLGGQHRDAEL
modifications: Glycine max
notes: spot also identified as Lea protein precursor
B4: superoxide dismutase [Fe], chloroplastic isoform X1 (protein)
chain: MASLGGLQNVSGINFLIKEKGCCMLQGPKVNAKFELKPPPYPLNGLEPVMSQQTLEFHWGKHHKTYVENLKKQVVGTELDGKSLEEIIVTSYNKGDILPAFNNAAQVWNHDFFWECMKPGGGGKPSGELLELIERDFGSFVKFLDEFKAAAATQFGSGWAWLAYRARKFDGENVANPPSPDEDNKLVVLKSPNAVNPLVWGGYYPLLTIDVWEHAYYLDFQNRRPDYISVFMDKLVSWDAVSSRLEQAKALITSA
modifications: Glycine max
notes: spot also identified as iron-superoxide dismutase

system: IgE antibodies from soybean-allergic patients; experiment: Immunoblotting of two-dimensional electrophoresis pattern of soybean proteins with patient serum; format: binding, human; conditions: spot in 2D electrophoresis gel of soybean proteins; patient serum compared with healthy subject serum
Description: Transfer to membrane was done using the following transfer system and transfer buffer. • Transfer system: XCell SureLock Mini-Cell and XCell II Blot Module (produced by Life Technologies) • Transfer buffer: NuPAGE Transfer Buffer (X20) (produced by Life Technologies), used in a form diluted 20-fold with milliQ water.
To be specific, proteins in the two-dimensional electrophoresis gels were transferred to a membrane (PVDF membrane) according to the following procedure. • (1) The PVDF membrane was immersed in 100% methanol followed by milliQ water, and then moved into the transfer buffer to hydrophilize the PVDF membrane. • (2) After sponge, filter paper, the gels treated by second-dimensional SDS-PAGE, the hydrophilized PVDF membrane, filter paper, and sponge were put in place in this order, the transfer system was energized at a constant voltage of 30 V for one hour.
Immunoblotting of the membrane was carried out using, as a primary antibody, a serum sample from a patient with a soybean allergy or a serum sample from a healthy subject.
Immunoblotting of the membrane was carried out according to the following procedure. • (1) The transferred membrane was shaken in a 5% skim milk/PBST solution (a PBS buffer containing 0.3% Tween 20 nonionic surfactant) at room temperature for one hour. • (2) The membrane was left to stand in a solution of 3% primary antibody serum in 5% skim milk/PBST at room temperature for one hour. • (3) The membrane was washed with a PBST solution (5 min.×3 times). • (4) The membrane was left to stand in a 1:2500 dilution of the secondary antibody, anti-human IgE-HRP (horseradish peroxidase), with a 3% skim milk/PBST solution at room temperature for one hour. • (5) The membrane was washed with a PBST solution (5 min.×3 times). • (6) The membrane was left to stand in Pierce Western Blotting Substrate Plus (produced by Thermo Fisher Scientific) for 5 minutes.
The membrane obtained through the foregoing series of treatments was subjected to fluorescent image scanning on Typhoon 9400 (produced by GE).
The immunoblots obtained with the serum from the soybean-allergic patient were compared with those obtained with the control serum from the healthy subject.

Molecule | specific binding to IgE antibodies from soybean-allergic patients
B1 | specific binding
B2 | specific binding
B3 | specific binding
B4 | specific binding
